Tests used:
hSBP2 (Homo sapiens) = target: T1, hSBP2 (Homo sapiens) (UniProt Q96T21); experiment: EMSA
T1 sequence: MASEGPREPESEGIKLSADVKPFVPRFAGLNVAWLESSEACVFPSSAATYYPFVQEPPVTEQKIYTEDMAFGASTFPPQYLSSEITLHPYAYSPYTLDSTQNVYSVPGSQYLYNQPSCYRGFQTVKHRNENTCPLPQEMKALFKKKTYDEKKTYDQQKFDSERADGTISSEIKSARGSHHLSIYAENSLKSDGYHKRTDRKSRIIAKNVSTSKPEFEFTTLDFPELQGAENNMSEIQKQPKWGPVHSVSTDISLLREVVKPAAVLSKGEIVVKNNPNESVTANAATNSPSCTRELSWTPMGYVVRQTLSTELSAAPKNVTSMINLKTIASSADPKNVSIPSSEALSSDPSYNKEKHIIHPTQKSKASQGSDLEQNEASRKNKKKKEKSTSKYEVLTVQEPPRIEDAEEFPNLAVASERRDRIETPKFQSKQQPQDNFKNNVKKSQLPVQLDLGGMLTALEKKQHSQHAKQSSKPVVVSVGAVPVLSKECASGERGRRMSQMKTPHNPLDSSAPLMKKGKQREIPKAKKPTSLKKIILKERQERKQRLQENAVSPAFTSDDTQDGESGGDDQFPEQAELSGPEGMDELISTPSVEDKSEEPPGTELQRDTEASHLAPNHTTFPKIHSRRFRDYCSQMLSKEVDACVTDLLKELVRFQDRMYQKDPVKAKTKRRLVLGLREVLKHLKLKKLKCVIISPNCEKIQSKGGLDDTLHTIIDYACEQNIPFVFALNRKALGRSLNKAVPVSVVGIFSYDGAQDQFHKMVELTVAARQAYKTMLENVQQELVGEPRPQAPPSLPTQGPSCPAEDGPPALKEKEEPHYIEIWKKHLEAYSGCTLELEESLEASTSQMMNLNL

[1] = target: T2, dSBP2 (Drosophila melanogaster) (UniProt Q9VSH1); experiment: EMSA
T2 sequence: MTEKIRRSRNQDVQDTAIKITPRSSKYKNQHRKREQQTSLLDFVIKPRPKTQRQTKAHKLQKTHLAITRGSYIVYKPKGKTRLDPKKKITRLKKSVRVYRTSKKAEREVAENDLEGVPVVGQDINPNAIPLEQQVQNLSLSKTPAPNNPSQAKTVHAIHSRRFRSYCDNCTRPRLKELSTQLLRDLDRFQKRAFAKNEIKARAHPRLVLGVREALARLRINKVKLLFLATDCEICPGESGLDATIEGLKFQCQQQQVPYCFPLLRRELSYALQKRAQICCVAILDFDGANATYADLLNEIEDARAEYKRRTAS

Substance	Kd (hSBP2 (Homo sapiens)) [nM]	Kd [1] [nM]
GPx1 SECIS (form 1)	400	
dSelH SECIS (form 2)		170
dSelK SECIS (form 2)		260

— paper PMC2673426
